The values below come from paper PMC6170606, “Biological and Biochemical Roles of Two Distinct Cyclic Dimeric Adenosine 3′,5′-Monophosphate- Associated Phosphodiesterases in Streptococcus mutans” (Frontiers in Microbiology, 2018).

The subject of series [1] is Nc1ncnc2c1ncn2[C@@H]1O[C@H](COP(=O)(O)O[C@H]2[C@@H](O)[C@H](n3cnc4c(N)ncnc43)O[C@@H]2COP(=O)(O)O)[C@@H](O)[C@H]1O. Nature of the series: initial rate, LC quantification of end product AMP (A254). The series is classed as biochemical, Streptococcus mutans. Conditions: 50 mM potassium phosphate pH 7.0, 1 mM MnCl2, 0-0.3 mM substrate. The source says: initial rate, LC quantification of end product AMP (A254) on rDhhP-ProS2 (recombinant DhhP, SMU_1297)

Series [2] concerns [H][C@@]1(O)[C@]2([H])OP(=O)(O)OC[C@@]3([H])O[C@@]([H])(n4cnc5c(N)ncnc54)[C@]([H])(O)[C@]3([H])OP(=O)(O)OC[C@@]2([H])O[C@@]1([H])n1cnc2c(N)ncnc21. Nature of the series: purified protein. Particulars: 50 mM potassium phosphate pH 5.0, 1 mM MnCl2, 0-0.3 mM substrate.
Description: initial rate, LC quantification of end product pApA (A254) on rGdpP109-657-ProS2 (truncated recombinant GdpP, SMU_2140c)

The Km is the substrate concentration at which the rate is half of its maximum. The Vmax is the top rate of the reaction or transport when substrate is in excess. In general, kcat refers to the maximal rate divided by the concentration of active sites.

Take “rDhhP-ProS2 (recombinant DhhP, SMU_1297) (Streptococcus mutans UA159)”: in series [1], the Km turned out to be 199 ± 65.4 µM, the Vmax was found to be 32.1 µmol/min/mg and the catalytic constant (kcat) stood at 36.5 ± 8.08 s⁻¹.
Regarding “rGdpP109-657-ProS2 (truncated recombinant GdpP, SMU_2140c) (Streptococcus mutans UA159)”, in series [2], the Michaelis-Menten constant (Km) is 89.7 ± 7.29 µM, the Vmax is 4.58 µmol/min/mg and the kcat turned out to be 4.02 ± 0.2 s⁻¹.
